Results published in the DeepSol protein solubility set.

Assay: soluble on expression in E. coli; label from the status in PepcDB or PDB records

Sequence | soluble on expression in E. coli
MEYTQIPSFALYNNASIFQFFPRNKRLSTHQKSCLDEHARKMAVFMMERQEEYRYYENLANQEQFSDDACFSDTGMDSGFCSGDTSTGQSASTSPAPAHLIPNPFFDPEYVASKTTMKLVANPFYNPKLAKEIKKKSTHTSKFQ | not soluble
MGSDKIHHHHHHMDRWTQLQLFVLTADLGSLSKAAEQLDMSNAAASRTLSSLEERLGARLIERTTRRMWLTDAGREYHRRCTAVIAELAEADAIASEEVVNPRGVLRVTSSVSFAMMHLAPALPEFLKRYPNLTVQITATNQYQNFIESGIDIAIRTKEHEGDSCITIRRLAETRRVLAASPAYLATHGRPQKPEDLAQHNMLVYNLAVDPYLLHLRRGKEERNIAIASALDSNEGQVIVAAGRAGLGIVVQPLYIIHDDIVSGRLVPVLEDWQLPRLTINLAYQSRRYQPAKIRVFTDFLIERVKNLNLEERWMTFAA | not soluble
MSLEFSDAELARASALQKRLVTLDSHLDTPANLERGDFDVMQGHAGNRLSQVDYPRMLEGALDGGFWAVYTGQGNRSAAAHLDDRDAGLQRLMKIHNLLAAQPQRFALATTPADAARIKAAGKRVVYISMENASPLVADPSLLRFYYAQGLRLMSTVHFLNNEFADSATDPKGAEWKGLSPAGKQLVQQALGIVIDQSHASDAVFDQLIALSPVPIVLSHSGARAVYNHPRNIDDARLKVLAAHGGVIQVNSYGGYLIDSGASPERKAAEKALADQYGGWEHLKMSDGTALSEALKALDARYPVKRATEEDFFAHLEHVLAVAGPAHVGIGMDWDGGGGVVGLEDVSDLPRITAWLLRKGYSEPQIAGIWGGNLLRVMEQAQAYAAGNRESGVGNREGHHHHHH | not soluble
MAHHHHHHMQQENRHLSSADLFKKFTLQNVAQIANISNKEQSQIRGELTEQYPLLADFWEDIMPKKPDIMLVRCHDQVHCVTLVSSQPEVLFFRHHNSPYIPHLKLLHKYPFILPRQQVDIGGCKYVVSGANVMCPGLTSEGGYITPGLAAGAIVAIHVEQKEHAIAVGRMLMSSEEIERVNNGPGIENIHHLGDGLWMNRVLSSSHIGAR | not soluble
MEQMIFIRKDDKVEVFSEEEELKGSYYRAILEDNPTKSGHNKLKVRYLTQLNEHRLAPLTEFVDQRFIRPVPSEDVNDGVVFVEGLMVDAYLKDGWWTGVVVKTMEDEKFLVYFDCPPDIIQFEKKKLRVHLDWTGFKWIRPDNKELVKSVFSCGTMVELRFDCAWIPVIVIKELEKDKRFLVKYWNKSYSCRESKNLIVDSLRLRPMQPPLSVGKYELLDHVEAFSGFEWRQGVVRGIVFEGRYMVSFGATKEASQFNHSDIRPPMEWEDGVWHKRTKPKRQKETSLDGNRNVQTKEPPGNEMADDVKKESGLPITLGVTATKNKTQGKVSPVPMKNGFGNESTREKMPEEPKIKYYTRKRKRGGLKLNSYINKTVLSSDRTPNVVKNSASNAEENHAKHTIMVLPFAKKSPVWKTYESLEVFKSVSHSLHFSPLFETKQDFREGYAIGMMVTYFGLLEKFKDLEADVPVSQLNSLKDSFSELEKHGFNVTTPLSRIDKLLALKDRQLYIMEELKGFDKEMTNEFSKAKQEFDDMEQKILEVKHKIIELQRQEAALKEQKEAEKEQKDAAWKKICQMESCAKDLNVELEDVEFEFETILSAPW | soluble
MGSDKIHHHHHHMKDDVSAPSRYRPSIFAVPFQRHGDGTAVELLSPSEQDALIAISRLVTVRRHTVLYPEGGDARFAYNIVSGVAETYQLLPNGDKRITAFLFPRDLMGLSENGAYVATAQSLTPLVAYRIPVEALAEILERDPRLDIGLLCKLCHELRRSQHHTITVSKNEAPARLASFLVWIQHAYPEEGRAEGEVMLPMSRHDIADYLGLSVESVSRGLHVLEAQDAVRRKGPRLVTVLDPAKLRRLAGQD | not soluble
SDWKLEGSTQKVESPVLQGQEGILEETGEDGLPEGFQLLQIDAEGECQEGEILATGSTAWCSKNVQRKQRHWEKIVAAKKSKRKQEKERRKANRAENPGICPQHSKRFLRALTKDKLLEAKHSGPRLCIDLSMTHYMSKKELSRLAGQIRRLYGSNKKADRPFWICLTGFTTDSPLYEECVRMNDGFSSYLLDITEEDCFSLFPLETLVYLTPDSEHALEDVDLNKVYILGGLVDESIQKKVTFQKAREYSVKTARLPIQEYMVRNQNGKNYHSEILAINQVFDILSTYLETHNWPEALKKGVSSGKGYILRNSVE | soluble
MQTYIETSRLILRDWKEEDIPAFARMNADPHVMEFFLHPLTPEESLAFYHRIQNEFQTCGFGLYAVERKEDHAFMGYTGLHQITFDVDFAPGIEIGWRLAHEYWGRGYAPEAATACLEYARKSLDIKELFSFTSLPNQRSERVMQKIGMERVREFGHPLVPAEHPLHRHVLYYIDLRKHSS | not soluble
MGSDKIHHHHHHMYNPVGVAAIGLGRWAYVMADAYTKSEKLKLVTCYSRTEDKREKFGKRYNCAGDATMEALLAREDVEMVIITVPNDKHAEVIEQCARSGKHIYVEKPISVSLDHAQRIDQVIKETGVKFLCGHSSRRLGALRKMKEMIDTKEIGEVSSIEAVFSNERGLELKKGNWRGEPATAPGGPLTQLGVHQIDNLQFLLGPVARVFNFGKPMYTEVENITVNQTLLEFEDGKQAYLGTNWACPGVFSINVYGTKANLFYQLDFSWWSNSDVTDEHSTLIKREFASMSDDPDNRILRDVKVDFESVDHLRVEVEEVADVIRNGGETEIGAEASLRNLAVVLAAVKSVHEKRPVEIAEIIG | not soluble
MHSDELLVEILVEELPAQALLNEYKEMPKKLHALFNKRALEVGNIEIFYTPRRLCLLIKDFPLLTQETKEEFFGPPVKIACNHQDKTQGLNALGLGFYQKLGLKDHQYFQTAFKNNKEVLYHAKIHEKEPTKDLIMPIVLEFLEGLNFGKSMRWGNVEKSFIRPIHNICVLFNGEDFSGIEVKEYGFKTKQATKVHRQEGFDFIQVDSPKAYFEVLEKNHVILDPKKREAKILQEIKELETKHHIIVETDRDLLDEVVAITEYPSALLGEFDKAFLKLPSEIIITSMKENQRYFATFCQKSQEESPTLHNGFIVVSNAINKDKQKIILGNQKVLKARLSDAVFFYENDLKKPLDNAPLESVVFVQGLGTLKDKMERESIIAQYLTQKYISSLNMPLEKALELVKRAVQIAKADLLSEVVYEFSELQGIMGYYYALKQNENELVALSVKEQYLPASENAPLPSSVFSSIVALSLKLDSLFSLFSVGKIPSGSKDPFALRRLSFGLLKIIAHYGLEFDLKADLKNLFQKVGVYQSFDLEILEKFLLERFHNLIDCNPSIIRSVLNTNERDIVK | not soluble
MGSDKIHHHHHHMEEKLSDVKVSGSGSIGGGNYDEVKISGSAKINGNVNCNSYMCSGSSTANGNITAKEIVKISGTTKVHGDLNSGDLIVSGSSRTFGNVTAKKIKISGSSDIEGNVHTDSIDISGSVSIGEDCEAEHFHARGGFEIAGLLNAGDIEIYMYGKCRVKDIGGENITVKLGSGHFIHEMMNLFFTRGRLVTSIIEGDNIYLEHTDAKIVRGNNITIGPNCNIENIEYKNQLNMDQSCKALCKKVDE | not soluble
YLFSSTAVASDESRPKIGLVLAGGGAKGAAHIGVLKALEEMHIPVDYITGTSMGAYVGGLYASGMSADEIEAFIDTVDWNSGFVDKVERSERQIRDKEYEDRYQIGTDIGFSFTELKAPKGFVQGQTMAKILRTTSDNIPYLNSFDQLPIPFRAVATDIEKLEPVVLDKGNLAEAMMASMSVPGALPPAEYDGRLLVDGGVVNNMPVDVV | not soluble
MAAYKLVLIRHGESAWNLENRFSGWYDADLSPAGHEEAKRGGQALRDAGYEFDICFTSVQKRAIRTLWTVLDAIDQMWLPVVRTWRLNERHYGGLTGLNKAETAAKHGEAQVKIWRRSYDVPPPPMEPDHPFYSNISKDRRYADLTEDQLPSCESLKDTIARALPFWNEEIVPQIKEGKRVLIAAHGNSLRGIVKHLEGLSEEAIMELNLPTGIPIVYELDKNLKPIKPMQFLGDEETVRKAMEAVAAQGKAKK | soluble
VLGDKEWVYLPGLKESFKARIDTGATTSSISAVDIVPFERGGQDWVKFRIEHDNIRSEELSLPVERWVRIRQSSAEEAQRRAVVVAWIQIGDLKEQTEFTLTDRTHLTYPLLLGRSFFKDVAVVDVSRHYIQPKHPSPKK | not soluble
MGYFSNAQRHAYESLLPRYGIPLTEEPVDLDSIFGRTAPGILEIGSGMGETTAEIARQHPEKDFIAIEVHAPGIGSLLGQIEKHRLTNLRIIPHDAKLVLQQMFTSESLDGIHIFFPDPWPKARHHKRRLIQPDFVSLLCDRLKPGGYLHIATDWEDYATHILHVLRSEERFVNTAVDYAARPAYRPLTKFEQRGMKLGHTIRDIIFTRTALEHHHHHH | soluble
